How the values were obtained:
[1] = target: N-myristoylated human Arf1 bound to GTPγS, anchored on nanodiscs (myrArf1·GTPγS) (human) (UniProt P84077); assay: not stated; binding of PH variants and Arf variants compared with wild type (Fig. SI8 and Table SI1); the method is not given
[2] = target: N-myristoylated human Arf1 bound to GTPγS, anchored on nanodiscs (myrArf1·GTPγS) (human) (UniProt P84077)

Sequence of N-myristoylated human Arf1 bound to GTPγS, anchored on nanodiscs (myrArf1·GTPγS) (human) (P84077 whole entry): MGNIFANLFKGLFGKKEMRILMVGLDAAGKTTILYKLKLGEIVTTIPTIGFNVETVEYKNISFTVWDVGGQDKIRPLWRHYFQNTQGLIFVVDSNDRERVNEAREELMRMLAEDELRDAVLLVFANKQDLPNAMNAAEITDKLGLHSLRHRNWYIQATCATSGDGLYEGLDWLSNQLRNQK

ASAP1 PH domain Lys391Ala (from UniProt Q9QWY8 325-451) (domain or fragment)
fold reduction of binding against wild type [1]: 2 fold
fold decrease in GAP activity compared with wild type (C50 of PZA, Fig. 7C) [2]: 100 fold

Source: PMC12485133
